Source: patent publication US20210198347A1 (Chugai, published 2021)

T1: recombinant human C1r2s2 Flag/His tetramer (human, UniProt P09871 16-688; P00736 18-705)
T1 construct: whole entries named; also called hc1r2s2; rC1r2s2
T1 chain 1: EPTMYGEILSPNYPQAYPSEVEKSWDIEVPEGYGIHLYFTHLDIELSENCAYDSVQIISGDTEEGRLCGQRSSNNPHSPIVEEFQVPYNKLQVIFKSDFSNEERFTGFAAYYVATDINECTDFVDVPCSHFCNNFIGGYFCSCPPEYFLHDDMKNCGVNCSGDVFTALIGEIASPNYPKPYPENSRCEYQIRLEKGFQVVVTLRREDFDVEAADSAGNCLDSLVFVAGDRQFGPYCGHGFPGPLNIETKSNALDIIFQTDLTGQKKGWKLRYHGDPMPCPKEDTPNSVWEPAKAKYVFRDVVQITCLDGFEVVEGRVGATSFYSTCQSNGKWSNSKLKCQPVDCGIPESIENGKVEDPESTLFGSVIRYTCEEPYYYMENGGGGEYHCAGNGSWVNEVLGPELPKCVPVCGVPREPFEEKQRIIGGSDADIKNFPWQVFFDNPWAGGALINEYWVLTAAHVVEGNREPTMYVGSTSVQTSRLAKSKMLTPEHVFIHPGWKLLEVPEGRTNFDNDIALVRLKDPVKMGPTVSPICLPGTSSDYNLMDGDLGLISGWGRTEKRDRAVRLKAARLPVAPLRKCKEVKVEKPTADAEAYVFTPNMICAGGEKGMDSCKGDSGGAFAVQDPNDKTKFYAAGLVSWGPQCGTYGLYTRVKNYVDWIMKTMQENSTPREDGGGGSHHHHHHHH
T1 chain 2: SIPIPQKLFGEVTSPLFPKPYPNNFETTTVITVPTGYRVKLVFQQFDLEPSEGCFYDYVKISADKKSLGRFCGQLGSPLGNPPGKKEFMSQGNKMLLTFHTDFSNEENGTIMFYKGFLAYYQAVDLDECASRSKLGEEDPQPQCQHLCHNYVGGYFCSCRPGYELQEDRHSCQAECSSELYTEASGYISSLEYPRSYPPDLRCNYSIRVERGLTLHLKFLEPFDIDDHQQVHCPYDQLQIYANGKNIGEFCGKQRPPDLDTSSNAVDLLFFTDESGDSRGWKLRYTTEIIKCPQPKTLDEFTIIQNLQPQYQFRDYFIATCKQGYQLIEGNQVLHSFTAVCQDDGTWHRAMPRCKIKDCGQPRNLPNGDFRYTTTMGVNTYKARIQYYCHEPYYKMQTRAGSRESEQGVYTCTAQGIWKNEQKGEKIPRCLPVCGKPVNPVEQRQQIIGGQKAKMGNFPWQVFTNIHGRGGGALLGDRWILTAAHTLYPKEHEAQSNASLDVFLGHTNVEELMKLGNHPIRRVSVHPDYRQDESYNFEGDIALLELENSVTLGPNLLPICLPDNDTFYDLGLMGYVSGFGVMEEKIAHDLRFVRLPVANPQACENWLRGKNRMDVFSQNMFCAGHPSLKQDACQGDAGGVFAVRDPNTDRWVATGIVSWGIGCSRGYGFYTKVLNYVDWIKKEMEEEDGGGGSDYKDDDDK


Target: T1, recombinant human C1r2s2 Flag/His …
Assay: SPR displacement (37 degrees C, pH 7.4): C1r2s2 captured by anti-His, C1q 100 nM pre-bound, antibody 500 nM at 10 micro L/min; time from antibody injection until the antibody sensorgram falls below the buffer sensorgram; competitor native human C1q
Procedure: An anti-His antibody (GE-Healthcare) was immobilized onto all flow cells of a CM4 sensor chip using an amine coupling kit (GE Healthcare). The antibodies, recombinant human C1r2s2 Flag/His tetramer and native human C1q (Comptech A099) were prepared in pH 7.4 buffer (20 mM ACES, 150 mM NaCl, 1.2 mM CaCl₂, 1 mg/mL BSA (IgG-free), 1 mg/mL CMD, 0.05% Tween 20, 0.005% NaN₃, pH 7.4). Recombinant human C1r2s2 Flag/His tetramer was first captured onto the sensor surface by the anti-His antibody (“hc1r2s2” in FIG. 2A). The capture levels were aimed at 200 resonance unit (RU). Native human C1q was injected at 100 nM to have a capture of 200 RU (“hc1q” in FIG. 2A), followed by antibody injection at 500 nM at 10 micro L/min for 1200 sec immediately. The sensor surface was regenerated each cycle with 10 mM Glycine-HCl (pH 1.5). For the antibodies with the C1q displacement function, the response unit of Sensorgram 2 (large dotted line; “C1r2s2+C1q+Ab” in FIGS. 2A and 2C) is lower than the response unit in Sensorgram 1 (small dotted line; “C1r2s2+C1q+buffer” in FIGS. 2A and 2C) after the time point where Sensorgrams 1 and 2 cross (“time point of crossover”). Depending on the time when Sensorgram 2 crosses over Sensorgram 1, COS0499 was categorized as a fast displacement variant. […] COS0448 was in the middle of fast displacement and slow displacement.
The time point of crossover is identified by subtraction of the buffer response (Sensorgram 1) from the antibody (Ab) response (Sensorgram 2), and referring to the time point when the differential value changes from positive to negative (Table 4). The time from the start of Ab injection is indicated in Table 4 as “time point of crossover”.

Time point of crossover (post-injection)	Binder
736 s	COS0631gg-SG1148 (antibody, human IgG1, kappa, V domains shown) VH: QSVEESGGRLVTPGTPLTLTCTVSGFSLSRYSMGWVRQAPGKGLEWIGIIYADGGAYYASWAKGRFTISKTSTTMDLKVTSPTTEDTATYFCARGQFINSNEFFNPWGPGTLVTVSS VL: QVLTQTASSVSAVVGGTVTINCQASQSLHNNKNLAWYQQKPGQPPRLLIYYASTLASGVSSRFKGSGSGTQFTLTISDLECDDAATYYCAGEFSCSNGDCNAFGGGTKVEIKR
764 s	COS0637cc-SG1148 (antibody, human IgG1, kappa, V domains shown) VH: QSLEESGGRLVTPGTPLTLTCTASGFSLSAYAMNWVRQAPGKGLEWIGLIYGSGSTFYASWAKGRFTISKTSTTVDLKMTSLTTEDTATYFCARGRSVNYNSDFKLWGPGTLVTVSS VL: QVLTQTPSSVSAAVGGTVTINCQASQSLHDKKNLAWYQHKPGQRPNLLIYGASTLESGVPSRFKGSGSGTEYTLTISDLECDDAAAYYCQGEFSCSSADCNTFGGGTKVEIKR
542 s	COS0547gg-SG1148 (antibody, human IgG1, kappa, V domains shown) VH: QSLEESGGRLVTPGTPLTLTCTASGFSLSSYHMDWVRQAPGKGLEWIGIITYTGDTYYATWAKGRFTISKTSSTTVDLKMASLTTEDTATYFCARRQYDAYNVWGPGTLVTVSS VL: AYDMTQTPASVEVAVGGTVTIKCQASQSINNYLAWYQQKPGQPPKLLIYYASTLASGVPSRFKGSRSGTEFTLTISGVECADAATYYCQHGYYTSSNIDSVFGGGTKVEIKR

Continued, binder first:

Binder	Time point of crossover (post-injection)
COS0499ee-SG1148 (antibody, human IgG1, kappa, V domains shown, also called COS499; COS499ee(-SG1148)) VH: QSLEESGGRLVTPGTPLTLTCTASGFSLSNYNMAWVRQAPGKGLEWIGIIETTTNTYYARWARGRFTISKTSSTTVDLQIASPTTEDTATYFCGRRVSNSHDLWGPGTLVTVSS VL: AYDMTQTPASVSAAVGGTVTINCQASQTIGGWCAWYQQKPGQPPKLLIYKASTLASGVSSRFKGSGSGTEFALTISDLECDDAATYYCQHGYYTSSTIENTFGGGTKVEIKR	61.9 s
COS0448oo-SG1148 (antibody, human IgG1, kappa, V domains shown, Rabbit B-cell derived variable regions; also called COS448; COS44800(-SG1148)) VH: QSVEESGGRLVTPGTPLTLTCTVSGFSLSNYGMIWVRQAPGEGLEYIGFVSGSGSAYYANWVKGRFTISKTSTTVDLKMTSLTTEDTATYFCARGAYNTDSYSYSLYYGMDLWGPGTLVTVSS VL: QIVMTQTPASVEVAVGGTVTIKCQASQSIYSYLSWYQQKPGQPPKLLIYGASTLASGVPSRFKGSRSGTEFTLTISDLECADAATYYCQSNYATTTTYGTFGGGTKVEIKR	169 s
